From PMC5305259 (Molecular Biology of the Cell, 2017) come the findings set out here.

This assay addresses T1, N-terminally tagged GFP cldn2 with the Linker domain between GFP and cldn2 (mouse, UniProt O88552 1-230).
T1 sequence: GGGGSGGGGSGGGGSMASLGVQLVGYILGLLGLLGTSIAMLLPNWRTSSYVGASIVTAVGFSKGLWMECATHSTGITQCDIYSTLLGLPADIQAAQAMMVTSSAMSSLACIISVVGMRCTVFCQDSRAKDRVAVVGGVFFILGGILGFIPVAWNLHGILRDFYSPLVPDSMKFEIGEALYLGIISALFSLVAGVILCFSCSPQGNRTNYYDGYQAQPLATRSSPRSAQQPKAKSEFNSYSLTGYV
The assay can be described thus: pull-down.

B1: myc-tagged N-terminal half of ZO-1 containing the PDZ domains (ZNA; amino acids 1-887) (domain or fragment, UniProt Q07157 1-887, looked up)
chain: MSARAAAAKSTAMEETAIWEQHTVTLHRAPGFGFGIAISGGRDNPHFQSGETSIVISDVLKGGPAEGQLQENDRVAMVNGVSMDNVEHAFAVQQLRKSGKNAKITIRRKKKVQIPVSRPDPEPVSDNEEDSYDEEIHDPRSGRSGVVNRRSEKIWPRDRSASRERSLSPRSDRRSVASSQPAKPTKVTLVKSRKNEEYGLRLASHIFVKEISQDSLAARDGNIQEGDVVLKINGTVTENMSLTDAKTLIERSKGKLKMVVQRDERATLLNVPDLSDSIHSANASERDDISEIQSLASDHSGRSHDRPPRRSRSRSPDQRSEPSDHSRHSPQQPSNGSLRSRDEERISKPGAVSTPVKHADDHTPKTVEEVTVERNEKQTPSLPEPKPVYAQVGQPDVDLPVSPSDGVLPNSTHEDGILRPSMKLVKFRKGDSVGLRLAGGNDVGIFVAGVLEDSPAAKEGLEEGDQILRVNNVDFTNIIREEAVLFLLDLPKGEEVTILAQKKKDVYRRIVESDVGDSFYIRTHFEYEKESPYGLSFNKGEVFRVVDTLYNGKLGSWLAIRIGKNHKEVERGIIPNKNRAEQLASVQYTLPKTAGGDRADFWRFRGLRSSKRNLRKSREDLSAQPVQTKFPAYERVVLREAGFLRPVTIFGPIADVAREKLAREEPDIYQIAKSEPRDAGTDQRSSGIIRLHTIKQIIDQDKHALLDVTPNAVDRLNYAQWYPIVVFLNPDSKQGVKTMRMRLCPESRKSARKLYERSHKLRKNNHHLFTTTINLNSMNDGWYGALKEAIQQQQNQLVWVSEGKADGATSDDLDLHDDRLSYLSAPGSEYSMYSTDSRHTSDYEDTDTEGGAYTDQELDETLNDEVGTPPESAITRSSEPVREDSSG
Turning to B1, the “fold binding against GFP cldn2 without the linker” value is about 3 fold.
